Target: RIa isoform of PKA (type I alpha regulatory subunit of cAMP-dependent protein kinase)
Assay: binding in vitro, method not described

fold weaker binding than the Val variant: 3 fold
Substance: D-AKAP2 (AKAP10) Ile variant, isoleucine at position 646 of SEQ ID NO:2 (from UniProt O43572 507-662)
